Patent publication CN111423507A (CAS CENTER FOR EXCELLENCE IN MOLECULAR CELL SCIENCE, dated 2020)

Assays:
[1] = target: A/HongKong/01/1968(H3N2)HA蛋白 (Influenza A virus …, UniProt Q91MA7 17-530); experiment: ELISA, native HA coated at 1 ug/ml, antibody 5 ug/ml
[2] = target: 全长1968HongKong H3N2 HA (义翘神州 Cat:VG40116-NH, N端His标签, 293T表达) (Influenza A virus …, UniProt Q91MA7 17-566); experiment: Western blot of full-length HA expressed in 293T cells
Sequence of 全长1968HongKong H3N2 HA (义翘神州 Cat:VG40116-NH, N端His标签, 293T表达) (Q91MA7 17-566 limits assumed): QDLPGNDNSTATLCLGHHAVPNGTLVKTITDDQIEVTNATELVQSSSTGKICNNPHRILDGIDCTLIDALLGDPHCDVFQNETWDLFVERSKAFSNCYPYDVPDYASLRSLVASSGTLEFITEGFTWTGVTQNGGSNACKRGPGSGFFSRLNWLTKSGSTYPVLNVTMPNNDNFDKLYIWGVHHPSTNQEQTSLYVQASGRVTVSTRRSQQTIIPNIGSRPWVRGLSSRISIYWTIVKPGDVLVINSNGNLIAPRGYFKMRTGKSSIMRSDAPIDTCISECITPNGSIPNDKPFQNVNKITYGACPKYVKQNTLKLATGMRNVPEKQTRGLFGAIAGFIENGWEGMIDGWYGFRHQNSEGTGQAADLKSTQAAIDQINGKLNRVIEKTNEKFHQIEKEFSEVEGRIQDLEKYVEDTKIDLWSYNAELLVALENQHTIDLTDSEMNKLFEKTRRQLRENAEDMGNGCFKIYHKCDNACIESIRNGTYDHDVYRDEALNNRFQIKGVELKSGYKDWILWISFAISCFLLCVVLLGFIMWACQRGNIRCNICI

Sequence of A/HongKong/01/1968(H3N2)HA蛋白 (Q91MA7 17-530 limits assumed): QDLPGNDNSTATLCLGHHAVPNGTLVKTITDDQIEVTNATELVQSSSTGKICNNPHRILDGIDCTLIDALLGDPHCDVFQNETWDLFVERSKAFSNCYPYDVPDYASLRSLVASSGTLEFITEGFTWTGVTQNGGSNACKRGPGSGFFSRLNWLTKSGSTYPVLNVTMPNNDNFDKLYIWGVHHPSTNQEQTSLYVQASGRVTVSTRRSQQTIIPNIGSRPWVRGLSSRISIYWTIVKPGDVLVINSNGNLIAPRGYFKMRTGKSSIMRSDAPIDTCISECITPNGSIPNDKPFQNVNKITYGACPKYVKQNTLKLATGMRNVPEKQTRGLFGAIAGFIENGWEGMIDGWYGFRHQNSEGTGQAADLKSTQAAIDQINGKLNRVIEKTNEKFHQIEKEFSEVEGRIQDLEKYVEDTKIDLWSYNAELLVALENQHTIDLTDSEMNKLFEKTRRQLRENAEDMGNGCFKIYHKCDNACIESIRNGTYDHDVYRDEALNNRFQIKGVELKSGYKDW

B1: 12mAb (antibody, V domains shown)
VH: EVQLVESGGGLVQPGGSLRLSCAASGFTFSTYNMNWVRQAPGKGLEWLSYISTSSNTIYYADSVKGRFTISRDNAKNSLFLQMNSLRDEDTAVYYCARDRGCSSTNCYVVGYYFYGMDVWGQGTTVTVSS
VL: DIQMTQSPSSVSASVGDRVTITCRASQGISSYLAWYQLKPGRAPKLLIYGATRLQSGVPSRFSGSGSGTDFTLTISGLQPEDFATYHCQQADSFPLTFGQGTRLEIK
- binding result [1]: binds
- binding result [2]: binds
